pKd: −log10 of the molar value.
Biological target: minke whale ACE2, mFc-tagged (minke whale)
Experiment: SPR

SARS-CoV-2 Omicron BA.1 receptor-binding domain (RBD) (from UniProt P0DTC2) (domain or fragment)
pKd: 6.60

Reference: PMC9517163
